Data on ten molecules can be found in US20210388087A1 (Chugai, published 2021).

Residue numbers refer to the chain shown, from its start. Where no end group is shown, it is not given here.

T1: cyno CD137-Fc (cynomolgus monkey; human, limits assumed, biotin-labeled)
T1 construct: whole entry 92 named; also called biotin-labeled cynomolgus monkey CD137 fused to human IgG1 Fc fragment; not shown: human IgG1 Fc fragment
T1 chain: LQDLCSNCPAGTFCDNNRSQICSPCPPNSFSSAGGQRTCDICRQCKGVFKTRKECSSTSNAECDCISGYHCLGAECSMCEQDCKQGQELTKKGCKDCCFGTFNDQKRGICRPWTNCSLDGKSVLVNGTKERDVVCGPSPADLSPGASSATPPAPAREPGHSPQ

T2: Human CD3eg linker (human)
T2 construct: Single chain: CD3 epsilon and gamma subunits joined by a 29-mer linker, Flag-tag at the C-terminus; also called recombinant human CD3
T2 chain: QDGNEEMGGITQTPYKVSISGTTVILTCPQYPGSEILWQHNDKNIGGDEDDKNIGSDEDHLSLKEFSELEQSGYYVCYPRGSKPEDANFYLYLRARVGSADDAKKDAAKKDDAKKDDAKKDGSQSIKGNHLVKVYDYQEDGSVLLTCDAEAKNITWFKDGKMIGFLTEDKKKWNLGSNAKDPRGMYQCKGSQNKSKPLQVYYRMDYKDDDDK

T3: Biotin-labeled CD3 epsilon peptide antigen (human, also: biotin-labeled, site not given here)
T3 construct: also called CD3 peptide
T3 peptide: QDGNEEMGGITQTPY

B1: DADU01_3#002 (antibody, V domains shown)
VH: QVQLVESGGGLVQPGRSLRLSCAASGFTFSNAWMHWVRQAPGKGLEWVAQIKDKQNLYNAYYAESVKGRFTISRDDSKNSIYLQMNSLKTEDTAVYYCHYVHYASASTVLPAFGVDAWGQGTTVTVSS
VL: DIVMTQSPLSLPVTPGEPASISCRSSQSLVHSNRNTYLHWYQQKPGQAPRLLIYKVSNRFSGVPDRFSGSGSGTDFTLKISRVEAEDVGVYYCGQGTQVPYTFGQGTKLEIK
notes: Human IgG1; light chain GLS3000 (kappa); also called dBBDu124
B2: anti-human CD137 antibody described in WO2005/035584A1 (abbreviated as B) (antibody, V domains shown)
VH: QVQLQQWGAGLLKPSETLSLTCAVYGGSFSGYYWSWIRQSPEKGLEWIGEINHGGYVTYNPSLESRVTISVDTSKNQFSLKLSSVTAADTAVYYCARDYGPGNYDWYFDLWGRGTLVTVSS
VL: EIVLTQSPATLSLSPGERATLSCRASQSVSSYLAWYQQKPGQAPRLLIYDASNRATGIPARFSGSGSGTDFTLTISSLEPEDFAVYYCQQRSNWPPALTFGGGTKVEIK
notes: Control antibody; also called control anti-CD137 antibody
B3: DXDU01_3#051 (antibody, V domains shown)
VH: B1 VH with K54R, Q55G, N56Q, L57Q, E64P, T108S, A112G, F113Y
VL: B1 VL
notes: Human IgG1; light chain GLS3000 (kappa); also called dBBDu127
B4: DXDU01_3#019 (antibody, V domains shown)
VH: QVQLVESGGGLVQPGRSLRLSCAASGFTFSIAWMHWVRQAPGKGLEWVAQIKDKVNGYTAYYAESVKGRFTISRDDSKNSIYLQMNSLKTEDTAVYYCRYVHYAAYYDVLGYGGVDAWGQGTTVTVSS
VL: B1 VL
notes: Human IgG1; light chain GLS3000 (kappa); also called dBBDu125
B5: DADU01_3#001 (antibody, V domains shown)
VH: B4 VH with K54R, G57A, T59E, E64P, A105S, V109L
VL: B1 VL
notes: Human IgG1; light chain GLS3000 (kappa); also called dBBDu126; dBBDu_126
B6: DADU01_3#018 (antibody, V domains shown)
VH: B1 VH with K54R, Q55A, L57S, E64P, A104S, S105A, V109L, A112S
VL: B1 VL
notes: Human IgG1; light chain GLS3000 (kappa); also called dBBDu123
B7: DXDU01_3#094 (antibody, V domains shown)
VH: B1 VH with Q55G, L57A, N59A, E64P, S107A, T108G, V109G, A112G
VL: B1 VL
notes: Human IgG1; light chain GLS3000 (kappa); also called dBBDu121
B8: GPC3/CD137xCD3 (bispecific antibody, V domains shown)
VH 1: B2 VH
VL 1: B2 VL
VH 2: QVQLVESGGGLVQPGRSLRLSCAASGFTFSNAWMHWVRQAPGKGLEWVAQIKDRANSYNTYYAESVKGRFTISRDDSKNSIYLQMNSLKTEDTAVYYCRYVHYTTYAGSSFSYGVDAWGQGTTVTVSS
VL 2: B1 VL with S28P
VH 3: QVQLVQSGAEVKKPGASVTVSCKASGYTFTDYEMHWIRQPPGEGLEWIGAIDGPTPDTAYSEKFKGRVTLTADKSTSTAYMELSSLTSEDTAVYYCTRFYSYTYWGQGTLVTVSS
VL 3: B1 VL with S28P
notes: Fc gamma R silent Fc; also called GPC3/CD137 x CD3 trispecific antibody (2+1)
B9: H0868L0581 Fab (Fab, V domains shown)
VH: B1 VH with T28K, A32V, Q55Y, L57A, N59A, E64P, V109L
VL: B1 VL with R24Q, S25P, S28E, L29V, S32M, S61P, G94A, Q98S, V99H, Y101F
notes: Fab made by limited Lys-C digestion of the bivalent antibody; also called H0868L581; Fab fragment of H0868L0581
B10: GPC3/CD137×CD3 trispecific antibody (other)
VH 1: B2 VH
VL 1: B2 VL
VH 2: B8 VH 2
VL 2: B1 VL with S28P
VH 3: B8 VH 3
VL 3: B1 VL with S28P

One assay addresses T4, human CD137-Fc (human, biotin-labeled).
T4 construct: if 90 already holds the Fc, drop the second piece; also called biotin-labeled human CD137 fused to human IgG1 Fc fragment; biotin-human CD137-Fc; not shown: human IgG1 Fc fragment
Description: bead ELISA on biotin-human CD137-Fc with 62.5 pmol free CD3e peptide as competitor.
The molecule B1 displayed an ELISA signal of 9970.

For B2, the ELISA signal came out at 183000.

B3 showed an ELISA signal of 10800.

Molecule B4 yielded an ELISA signal of 12800.

For B5, the ELISA signal was determined as 15100.

In the case of B6, the ELISA signal was determined as 9020.

B7 had an ELISA signal of 9660.

A further assay addresses T4, human CD137-Fc. Description: bead ELISA on biotin-human CD137-Fc with 62.5 pmol free human Fc (control competitor). In general terms: ELISA stands for enzyme-linked immunosorbent assay.
The molecule B1 yielded an ELISA signal of 155000.

B2 displayed an ELISA signal of 184000.

Take B3: the ELISA signal is 128000.

B4 came in with an ELISA signal of 172000.

Take B5: the ELISA signal stood at 81000.

With B6, the ELISA signal was determined as 117000.

Regarding B7, the ELISA signal worked out at 108000.

The next assay concerns the target T4, human CD137-Fc. Put plainly: bead ELISA, IgG on biotinylated antigen, luminescence.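 Also: biotinylated antigen captured on streptavidin magnetic beads, then incubated with purified IgG at 50 ng/µL for 1 h at room temperature before detection.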
On to B1, for which the RLU was 39100 RLU and the “S/N ratio (human CD137-Fc/Fc)” value was 20.3.

For the molecule B3, the RLU was found to be 38100 RLU and the “S/N ratio (human CD137-Fc/Fc)” value amounted to 13.1.

Consider B4, for which the RLU came to 77800 RLU and the “S/N ratio (human CD137-Fc/Fc)” value was 23.8.

Turning to B5, the RLU came to 95300 RLU and the “S/N ratio (human CD137-Fc/Fc)” value came to 54.1.

As to B6, the RLU was found to be 32800 RLU and the “S/N ratio (human CD137-Fc/Fc)” value stood at 17.3.

In the case of B7, the RLU was determined as 24200 RLU and the “S/N ratio (human CD137-Fc/Fc)” value came out at 10.2.

The next assay deals with T1, cyno CD137-Fc. Described as above.
B1: the RLU came to 10800 RLU and the “S/N ratio (cyno CD137-Fc/Fc)” value is 5.6.

Regarding B3, the RLU was determined as 10900 RLU and the “S/N ratio (cyno CD137-Fc/Fc)” value is 3.73.

Consider B4, for which the RLU stood at 5090 RLU and the “S/N ratio (cyno CD137-Fc/Fc)” value turned out to be 1.56.

In the case of B5, the RLU was determined as 1210 RLU and the “S/N ratio (cyno CD137-Fc/Fc)” value was found to be 0.687.

On to B6, for which the RLU amounted to 6200 RLU and the “S/N ratio (cyno CD137-Fc/Fc)” value is 3.27.

On to B7, for which the RLU was 19100 RLU and the “S/N ratio (cyno CD137-Fc/Fc)” value was 8.09.

The target of another assay is T5, Human CD137 ECD (human).
T5 construct: also called human CD137 extracellular domain; recombinant human CD137
Put plainly: SPR Biacore T200, 37 C, Ab captured on anti-human Fc, antigen as analyte. On the technique in general: SPR reads the build-up and loss of mass on a sensor chip optically.
In the case of B8, the Kd (commonly the constant that tells how readily two partners part at equilibrium) was found to be 37.7 nM; the koff – broadly, the rate constant with which the complex falls apart – was determined as 0.0206 s⁻¹; the on-rate constant (kon) (commonly the second-order rate constant of association) stood at 547000 M⁻¹ s⁻¹.

Another assay concerns the target T2, Human CD3eg linker. The assay is described as above.
In the case of B8, the equilibrium dissociation constant (Kd) was 19.7 nM, the koff came out at 0.00161 s⁻¹ and the kon came out at 81800 M⁻¹ s⁻¹.

The target of another assay is T4, human CD137-Fc. Description: bead ELISA on biotin-human CD137-Fc, free CD3e peptide vs free Fc.
Molecule B1 registered a Signal decrease of 93.6%.

In turn, B2 registered a Signal decrease of 0.94%.

As to B3, the Signal decrease was determined as 91.6%.

Molecule B4 registered a Signal decrease of 92.5%.

B5 gave a Signal decrease of 81.3%.

Regarding B6, the Signal decrease is 92.3%.

B7: the Signal decrease was found to be 91.1%.

The target of a further assay is T6, Extracellular domain (24-186) of human CD137 (human, UniProt Q07011 24-186).
T6 construct: Fc cleaved off; also called hCD137; CD137 extracellular domain
Description: complex formation, gel filtration. On the technique in general: SEC sorts molecules by how far they enter the pores of the column.
Take B9: the binding result is recorded as “binds”.

The target in the next assay is T4, human CD137-Fc. Put plainly: bead ELISA on biotin-human CD137-Fc, 0 pmol free CD3e peptide.
B1 had an ELISA signal of 6620.

In turn, B2 had an ELISA signal of 99400.

B3: the ELISA signal was found to be 3230.

As for B4, the ELISA signal came to 61400.

For the molecule B5, the ELISA signal stood at 116000.

With B6, the ELISA signal turned out to be 2750.

B7 returned an ELISA signal of 3610.

In another assay the target is T4, human CD137-Fc. Put plainly: bead ELISA on biotin-human CD137-Fc with 125 pmol/well free CD3e peptide as competitor.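 Also: Streptavidin-coated magnetic beads in blocking buffer as the capture surface, well signal read as fluorescence 2 min after adding APS-5 substrate.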
Consider B1, for which the ELISA signal is 2120.

B2 yielded an ELISA signal of 98100.

B3: the ELISA signal stood at 2200.

B4: the ELISA signal was determined as 2060.

B5 returned an ELISA signal of 2610.

The molecule B6 had an ELISA signal of 1840.

As to B7, the ELISA signal came out at 1830.

For another assay, the target named is T4, human CD137-Fc. Description: bead ELISA on biotin-human CD137-Fc, 125 vs 0 pmol free CD3e peptide.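 Also: target captured on streptavidin-coated magnetic beads, signal read as fluorescence 2 min after adding APS-5 substrate.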
Regarding B1, the Signal decrease stood at 68%.

In the case of B2, the Signal decrease turned out to be 1.26%.

As to B3, the Signal decrease was found to be 32%.

For the molecule B4, the Signal decrease came out at 96.7%.

Regarding B5, the Signal decrease came out at 97.8%.

Take B6: the Signal decrease is 33%.

With B7, the Signal decrease came to 49.4%.

The next assay addresses human CD137 expressed on cells (human, UniProt Q07011 24-255). Description: cell-based or functional assay.
Regarding B10, the “Luminescence against CD137 positive cells relative to that against GPC3 positive cells, 1 nM” value was roughly 107% and the “Luminescence against CD137 positive cells relative to that against GPC3 positive cells, 10 nM” value was roughly 128%.

In another assay the target is T3, Biotin-labeled CD3 epsilon peptide …. Put plainly: bead ELISA, IgG on biotinylated CD3 epsilon peptide, luminescence.
In the case of B1, the RLU is 174000 RLU and the “S/N ratio (CD3 peptide/non coating)” value came out at 156.

In the case of B3, the RLU stood at 169000 RLU and the “S/N ratio (CD3 peptide/non coating)” value is 145.

For B4, the RLU came out at 191000 RLU and the “S/N ratio (CD3 peptide/non coating)” value worked out at 161.

B5: the RLU stood at 198000 RLU and the “S/N ratio (CD3 peptide/non coating)” value came out at 146.

B6: the RLU came out at 182000 RLU and the “S/N ratio (CD3 peptide/non coating)” value was 149.

Consider B7, for which the RLU worked out at 165000 RLU and the “S/N ratio (CD3 peptide/non coating)” value turned out to be 141.
